Results taken from US20240067748A1 (NONA BIOSCIENCES SUZHOU, published 2024).
Substitutions are numbered along the chain they refer to.

T1: monkey Trop2 protein (Sino Biological, #90893-C08H) (monkey, UniProt A0A2K5UE71 27-274)
T1 construct: bought protein; also called monkey Trop2 protein antigen (His tag)
T1 sequence: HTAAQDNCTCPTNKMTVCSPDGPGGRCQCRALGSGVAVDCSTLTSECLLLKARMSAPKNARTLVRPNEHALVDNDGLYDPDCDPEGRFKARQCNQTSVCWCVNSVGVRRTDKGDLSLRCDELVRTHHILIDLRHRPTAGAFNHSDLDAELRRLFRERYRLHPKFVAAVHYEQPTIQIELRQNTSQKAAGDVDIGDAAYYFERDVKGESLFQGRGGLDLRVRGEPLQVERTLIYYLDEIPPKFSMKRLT

T2: human TROP2 protein (Sino Biological, #10428-H08H) (human, UniProt P09758 27-274)
T2 construct: bought protein; also called human Trop2 protein antigen (His tag); not shown: His tag
T2 sequence (looked up): T1 sequence with V36M, E46K, N67S, V204I

T3: mouse Trop2-his protein (Sino Biological, #50922-M08H) (mouse, UniProt Q8BGV3 25-270)
T3 construct: bought protein; also called mouse Trop2 protein; not shown: his tag
T3 sequence (looked up): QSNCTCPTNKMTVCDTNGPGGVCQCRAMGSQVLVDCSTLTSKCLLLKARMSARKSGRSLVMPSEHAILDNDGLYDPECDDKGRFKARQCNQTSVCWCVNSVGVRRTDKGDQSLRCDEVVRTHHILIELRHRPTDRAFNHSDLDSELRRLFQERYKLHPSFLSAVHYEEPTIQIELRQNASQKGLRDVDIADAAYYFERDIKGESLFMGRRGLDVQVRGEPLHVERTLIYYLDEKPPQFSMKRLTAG

T4: monkey Trop2 on CHO-K1 cells (monkey, UniProt A0A2K5UE71 27-323)
T4 construct: also called CHO-K1/monkey Trop2
T4 sequence: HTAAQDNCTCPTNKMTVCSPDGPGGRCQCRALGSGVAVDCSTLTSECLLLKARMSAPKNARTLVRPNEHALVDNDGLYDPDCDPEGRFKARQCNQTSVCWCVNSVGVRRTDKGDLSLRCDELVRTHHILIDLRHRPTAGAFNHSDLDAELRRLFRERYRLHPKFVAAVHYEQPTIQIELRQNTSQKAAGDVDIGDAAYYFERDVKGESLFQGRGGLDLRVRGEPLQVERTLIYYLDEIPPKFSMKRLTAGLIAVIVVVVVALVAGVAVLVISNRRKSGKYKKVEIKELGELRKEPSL

B1: PR001133 (antibody, human IgG1, kappa, V domains shown)
VH: QVNLVESGGGVVQPGRSLKLSCAASGFTFSSYGMHWVRQAPGKGLEWVALIWSDGTNRYYTESVKGRFTISRDNSKNTLSLQMKSLRAEDTAVYYCAKDGWGTYGEYFQHWGQGTLVTVSS
VL: DIQMTQSPSSLSASVGDRVTITCRASQNINSYLHWYQQKPGKAPKLLIYAASSLQSGVPSRFSGSGSGTDFTLTISSLQPEDFAIYYCQQSYSIPPITFGQGTRLEIKR
notes: fully human IgG1/kappa; also called antibody No. (5)
B2: PR001165 (antibody, human IgG1, kappa, V domains shown)
VH: QVQLVESGGGVVQPGRSLRLSCEASGFTFSHYGMHWVRQAPGKGLEWVAVIWYDGIKTYYVESVKGRFTISRDNSKNTLNLQMNRLRAEDTAVYYCARDGGFGESNYYGLDVWGQGTTVTVSS
VL: DIQLTQSPSFLSASVGDRVTITCRASQGISSYLGWYQQKPGKAPKLLIYIASTLQSGVPSRFSGSGSGTEFTLTISSLQPEDFATYYCQQLNSYPYTFGQGTKLEIKR
notes: fully human IgG1/kappa; also called antibody No. (26)
B3: PR001139 (antibody, human IgG1, kappa, V domains shown)
VH: QVQLVESGGGVVQPGRSLRLSCAASGFTFSSFGMQWVRQGPGKGLEWVAVMWFDGSNKYYVDSVKGRFTISRDNSKNTLYLQMNSLRAEDTAVYYCARLDFSGWPLIDYWGQGTLVTVSS
VL: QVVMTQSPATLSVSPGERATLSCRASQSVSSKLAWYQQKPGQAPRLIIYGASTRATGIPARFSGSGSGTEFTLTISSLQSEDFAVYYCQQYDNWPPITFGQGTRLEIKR
notes: fully human IgG1/kappa; also called antibody No. (8)
B4: PR001128 (antibody, human IgG1, kappa, V domains shown)
VH: QVQLQESGPGLVKPSGTLSLTCAVSGGSISSSNWWSWVRQPPGKGLEWIGEIFHSGTTYYNPSLKSRVTILVDKSKNQFSLKLSSVTAADTAVYYCARDNTKSWDHFDHWGQGTLVTVSS
VL: EIVLTQSPATLSLSPGERATLSCRASQSVGSYLAWYQQKPGQAPSLLIYDASNRATGIPARFSGSGSGTDFTLTISSLEPEDFAVYYCQQRTNWYTFGQGTKLEIKR
notes: fully human IgG1/kappa; also called antibody No. (1)
B5: comparative example 2 antibody Tab (hRS7) (antibody, human IgG1, kappa, V domains shown)
VH: QVQLQQSGSELKKPGASVKVSCKASGYTFTNYGMNWVKQAPGQGLKWMGWINTYTGEPTYTDDFKGRFAFSLDTSVSTAYLQISSLKADDTAVYFCARGGFGSSYWYFDVWGQGSLVTVSS
VL: DIQLTQSPSSLSASVGDRVSITCKASQDVSIAVAWYQQKPGKAPKLLIYSASYRYTGVPDRFSGSGSGTDFTLTISSLQPEDFAVYYCQQHYITPLTFGAGTKVEIKR
notes: prepared on the basis of sacituzumab govitecan (ChemPartner, #T07-001); naked antibody
B6: PR001166 (antibody, human IgG1, kappa, V domains shown)
VH: QVQLQESGPGLVKPSETLSLTCAVSGYSISSGYFWAWIRQPPGKGLEWIGSIYHSGRTHYNPSLKSRVIISLDTSKNQFSLKLRSVTAADSAVYYCAREGYASGSYYWGQGTLVTVSS
VL: EIVMTQSPATLSVSPGERATLSCRSSQSVNNYLAWFQQKPGQAPRLLIYDSSTRATGIPARFSGSGSGTEFTLTISSLQSEDFAFYFCQQYENWPLTFGGGTKVEIKR
notes: fully human IgG1/kappa; also called antibody No. (27)
B7: PR001130 (antibody, human IgG1, kappa, V domains shown)
VH: QVQLQESGPGLVKPSGTLSLTCAVSGDSISSHNWWSWVRQPPGKGLEWIGEIYHSGITSYNPSLKSRVTISVDKSKNQFSLKLNSVTAADTAMYYCARGSGVISYFDYWGQGTLVTVSS
VL: DIQMTQSPSTLSASVGDRVTITCRASQSIGNWLAWYQQKPGKAPKLLIYKASSLESGVPSRFSGSGSGTEFTLTISSLQPDDFATYYCQQYDSYSPITFGQGTRLEIKR
notes: fully human IgG1/kappa; also called antibody No. (2)
B8: PR001142 (antibody, human IgG1, kappa, V domains shown)
VH: B7 VH with H32N, H54P, S55G, I57N, T58P, S59N, M93V
VL: B7 VL with N31H, S63R, D92S, T103S
notes: fully human IgG1/kappa; also called antibody No. (9)
B9: PR001162 (antibody, human IgG1, kappa, V domains shown)
VH: QVQLVESGGGVVQPGTSLRLSCVASGFTFSNDGMHWVRQAPGMGLEWVAIMWFDGGSKYYADSVKGRFTISRDNSKNTLYLQMNNLRAEDTAVYYCARDHPHYLGSGSFDYWGQGTLVTVSS
VL: EIVLTQSPATLSLSPGERATLSCRASQSVSSYLAWYQQKPGQAPRLLIYDASNRATGIPARFSGSGSGTDFTLTISSLQAEDVAVYYCQQYYSTPYTFGQGTKLEIKR
notes: fully human IgG1/kappa; also called antibody No. (23)

target: T1, monkey Trop2 protein (Sino Biological, …); assay: BLI, Octet RED96, AHC sensor
How it was run: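 Affinity and on/off rate constants came from real-time association and dissociation traces. The sensor carried human or monkey Trop2 loaded at 200 nM, and 40 nM antibody was applied for 3 min, then buffer for 5 min, at 30° C in PBS pH 7.4 containing 0.1% BSA and 0.02% Tween 20.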

Binder | Kd [nM] | Response | koff [s⁻¹] | kon [M⁻¹ s⁻¹]
B1 | 2.49 | 0.369 | 0.000149 | 59800
B2 | 0.26 | 0.393 | 2.62e-05 | 101000
B3 | 7.75 | 0.328 | 0.000528 | 68100
B4 | < 0.001 | 0.384 | < 1e-07 | 83500
B5 | 0.137 | 0.322 | – | –
B6 | < 0.001 | 0.322 | < 1e-07 | 316000
B7 | < 0.001 | 0.315 | < 1e-07 | 37700
B8 | 0.26 | 0.382 | 4.29e-05 | 165000
B9 | 3.66 | 0.37 | 0.000732 | 200000

target: T2, human TROP2 protein (Sino Biological, …); assay: BLI, Octet RED96, AHC sensor
How it was run: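 Biolayer interferometry: human or monkey Trop2 at 200 nM in PBS pH 7.4 with 0.1% BSA and 0.02% Tween 20 captured on AHC sensors, then 40 nM antibody associated 3 min and dissociated 5 min at 30 °C. Association, dissociation constants and affinity fitted from real-time signals.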

Binder | Kd [nM] | Response | koff [s⁻¹] | kon [M⁻¹ s⁻¹] | fold lower KD than the reference antibody Tab (hRS7) [fold]
B1 | 1.1 | 0.386 | 9.72e-05 | 88500 | –
B2 | < 0.001 | 0.38 | < 1e-07 | 164000 | ~10
B3 | 4.79 | 0.336 | 0.000426 | 89000 | –
B4 | < 0.001 | 0.402 | < 1e-07 | 130000 | –
B5 | 0.199 | 0.349 | – | – | –
B6 | < 0.001 | 0.324 | < 1e-07 | 470000 | –
B7 | < 0.001 | 0.357 | < 1e-07 | 55200 | –
B8 | 0.323 | 0.39 | 8.78e-05 | 272000 | –
B9 | 1.7 | 0.366 | 0.000507 | 298000 | –

target: T3, mouse Trop2-his protein (Sino …); assay: ELISA, plate coated with mouse Trop2-his protein, anti-human IgG (H+L)-HRP, OD450 nm
Protocol: An ELISA plate was coated with 100 μL of 1 μg/mL mouse Trop2-his protein (Sino Biological, #50922-M08H) in PBS at 4° C. overnight. The plate was blocked with 200 μL of PBST (PBS+0.05% tween 20)+2% BSA at 37° C. for 1 h. The plate was washed 4 times with PBST. 100 μL of Trop2 antibody diluted in a gradient (5-fold dilution, starting concentration: 33.33 nM) was added to the ELISA plate and the plate was incubated at 37° C. for 1 h. The plate was washed 4 times with PBST. 100 μL of anti-human IgG (H+L)-HRP (Sigma, #A8667) diluted in 1:4000 was added and the plate was incubated at 37° C. for 1 h. The plate was washed 4 times with PBST. 100 μL of TMB substrate (Invitrogen, #88-7025-88) was added and the plate was incubated at room temperature for 5 min, and then 50 μL of stop buffer (BBI life sciences, #E661006-0200) was added to stop the reaction. The OD450 nm reading was recorded using a microplate reader (Perkin Elmer, EnSpire).

Binder | binding result
B1 | no binding
B2 | no binding
B3 | binds
B4 | no binding
B6 | binds
B7 | no binding
B8 | no binding
B9 | no binding

target: T4, monkey Trop2 on CHO-K1 cells; assay: flow cytometry on CHO-K1/monkey Trop2 cells
Protocol: CHO-K1/monkey Trop2 cells (Chempartner, Shanghai, China) and CHO-K1 blast cells were each digested with 3 mL of TrypLE, and the digestion was stopped with 7 mL of the corresponding medium. […] The cell solution was centrifuged, and the cells were washed once with PBS+0.5% BSA. […] The cells were washed once with PBS+0.5% BSA. The cells were incubated at 4° C. for 1 h in the dark with 100 μL of Alexa Fluor 488 goat anti-human IgG (Life technologies, #A-11013) diluted at 1:1000, and washed twice with PBS+0.5% BSA. The cells were resuspended in 200 μL of PBS+0.5% BSA. The suspension was centrifuged at 4° C. for 5 min at 2000 rpm and tested using a FACS verse flow cytometer or NovoCyte flow cytometer (ACEA Biosciences). All procedures were performed on ice.

Binder | EC50 [nM] | Maximum MFI value [MFI]
B1 | 2.87 | 55300
B3 | 3.33 | 46400
B4 | 2.57 | 53200
B5 | 2.13 | 53100
B6 | 1.97 | 51500
B7 | 6.26 | 61700
B8 | 2.1 | 51200
B9 | 2.25 | 45500
